# Source: publication PMC5025769, “A highly efficient sorbitol dehydrogenase from Gluconobacter oxydans G624 and improvement of its stability through immobilization” (Scientific Reports, 2016)
# B1: sorbitol dehydrogenase (GoSLDH) from Gluconobacter oxydans G624 (enzyme, UniProt Q9KWR5 1-485, looked up)
# chain: MITRETLKSLPANVQAPPYDIDGIKPGIVHFGVGNFFRAHEAFYVEQILEHAPDWAIVGVGLTGSDRSKKKAEEFKAQDCLYSLTETAPSGKSTVRVMGALRDYLLAPADPEAVLKHLVDPAIRIVSMTITEGGYNINETTGAFDLENAAVKADLKNPEKPSTVFGYVVEALRRRWDAGGKAFTVMSCDNLRHNGNVARKAFLGYAKARDPELAKWIEENATFPNGMVDRITPTVSAEIAKKLNAASGLDDDLPLVAEDFHQWVLEDQFADGRPPLEKAGVQMVGDVTDWEYVKIRMLNAGHVMLCFPGILVGYENVDDAIEDSELLGNLKNYLNKDVIPTLKAPSGMTLEGYRDSVISRFSNKAMSDQTLRIASDGCSKVQVFWTETVRRAIEDKRDLSRIAFGIASYLEMLRGRDEKGGTYESSEPTYGDAEWKLAKADDFESSLKLPAFDGWRDLDTSELDQKVIVLRKIIREKGVKAAIPA
# notes: sorbitol dehydrogenase (SLDH) of Gluconobacter oxydans G624; complete 1455-bp codon-optimized gene; molecular mass 53.64 kDa by SDS-PAGE; The abstract speaks of the complete 1455-bp gene, the methods of 1.458 kb; also called recombinant GoSLDH; polyol-specific long-chain dehydrogenase from G. oxydans G624; source: E. coli BL21 (DE3)-CodonPlus RIL, pET-28(a), purified (Ni-NTA Superflow column)
# Experiments:
# [1] = target: T1, GoSLDH (sorbitol dehydrogenase) (Gluconobacter oxydans, UniProt Q9KWR5); assay: substrate specificity assay at […]; type: biochemical
# T1 construct: purified 6x His-tagged recombinant GoSLDH
# T1 sequence (Q9KWR5 1-485): B1 chain
# [2] = target: T2, PfMDH (mannitol dehydrogenase) (Pseudomonas fluorescens, UniProt O08355, K295Q); assay: isothermal titration calorimetry, […] °C; type: binding
# T2 construct: gene mtlD
# [3] = target: GoSLDH (sorbitol dehydrogenase) (Gluconobacter oxydans, UniProt Q9KWR5, K294Q); assay: isothermal titration calorimetry, […] °C; type: binding
# [4] = substrate: NC(=O)c1ccc[n+]([C@@H]2O[C@H](COP(=O)(O)OP(=O)(O)OC[C@H]3O[C@@H](n4cnc5c(N)ncnc54)[C@H](OP(=O)(O)O)[C@@H]3O)[C@@H](O)[C@H]2O)c1; assay: purified protein; details: varied: cofactor
# [5] = substrate: OC[C@@H](O)[C@@H](O)[C@H](O)[C@@H](O)CO; assay: purified protein; type: biochemical, Gluconobacter oxydans; details: NADP^+
# [6] = target: the molecule itself; assay: SEC; Bio-Sil SEC-250 column (300 x 7.8 mm) on HPLC; mobile phase pH 6.8, 50 mM Na2HPO4, 50 mM NaH2PO4, 50 mM NaCl, 10 mM NaN3; 1.0 mL/min; quaternary structure from comparison of molecular weights by HPLC and SDS-PAGE
# T2 sequence (O08355 entry or part of it K295Q): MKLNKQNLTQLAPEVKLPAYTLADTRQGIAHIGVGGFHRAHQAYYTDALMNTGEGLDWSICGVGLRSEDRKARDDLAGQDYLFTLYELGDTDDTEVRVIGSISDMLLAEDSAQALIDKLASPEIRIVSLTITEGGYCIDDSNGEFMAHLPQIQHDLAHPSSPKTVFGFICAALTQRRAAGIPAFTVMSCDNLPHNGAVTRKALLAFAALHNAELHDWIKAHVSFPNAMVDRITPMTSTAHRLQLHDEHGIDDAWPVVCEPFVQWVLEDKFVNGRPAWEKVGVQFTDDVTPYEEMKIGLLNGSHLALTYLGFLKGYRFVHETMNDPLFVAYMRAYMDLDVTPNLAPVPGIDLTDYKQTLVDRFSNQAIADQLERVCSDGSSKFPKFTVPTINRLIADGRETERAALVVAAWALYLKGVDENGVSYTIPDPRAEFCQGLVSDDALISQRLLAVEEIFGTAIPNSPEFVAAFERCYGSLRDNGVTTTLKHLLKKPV
molecule,measurement,setting,value
OC[C@@H](O)[C@@H](O)[C@H](O)[C@H](O)CO [mannitol],substrate specificity assay at 200 mM,[1],"GoSLDH is highly specific towards D-sorbitol, mannitol, and D-arabinitol (Table S2)"
OC[C@@H](O)[C@@H](O)[C@H](O)[C@@H](O)CO [D-sorbitol],Kd,[2],278 µM
same,Kd,[3],96 µM
B1,Km,[4],0.0882 mM
same,Km,[5],38.9 mM
same,kcat,[5],3820 s⁻¹
same,kcat/Km,[5],98100 M⁻¹ s⁻¹
same,stoichiometry N,[6],2
